In paper PMC11187062:

B1: human DPPA3, residues 81–118 (recombinant) [human] / human UHRF1 PHD finger, residues 299–366 [human] (parent)
chain 1: SRRGVRTLLSVQREKMARLRYMLLGGVRTHERRPTNKE
chain 2: GPSCKHCKDDVNRLCRVCACHLCGGRQDPDKQLMCDECDMAFHIYCLDPPLSSVPSEDEWYCPECRND

Variants of: B1
Experiment: ITC
Conditions: with human UHRF1 PHD finger

Q: With chain 1 V5A as the variant, how does the Kd read?
A: 1.61 µM
